Assay results: article PMC12459405, “From disorder to icosahedral symmetry: How conformation-switching subunits enable RNA virus assembly” (Science Advances, 2025)

Molecular target: the molecule itself
Assay: cryo-TEM + other: SAXS; in vitro assembly: purified CCMV capsid proteins mixed with in vitro transcribed RNA (C2, 2767 nt, or RF2, 2687 nt) and dialysed overnight against 0.1 M NaCl, 50 mM tris-HCl pH 7.5; SAXS at 25 uM protein, protein-to-RNA mass ratio 4.5; cryo-TEM at 75 uM protein, mass ratio 6.0

B1: cowpea chlorotic mottle virus (CCMV) capsid protein (natural protein)
chain: MSTVGTGKLTRAQRRAAARKNKRNTRVVQPVIVEPIASGQGKAIKAWTGYSVSKWTASCAAAEAKVTSAITISLPNELSSERNKQLKVGRVLLWLGLLPSVSGTVKSCVTETQTTAAASFQVALAVADNSKDVVAAMYPEAFKGITLEQLTADLTIYLYSSAALTEGDVIVHLEVEHVRPTFDDSFTPVY
notes: Free capsid protein stored in 0.5 M NaCl, 50 mM tris-HCl pH 7.5; also called CCMV capsid proteins; CCMV coat proteins; source: purified from CCMV virions from infected cowpea leaves (Vigna unguiculata); virions disassembled by dialysis, capsid proteins recovered by ultracentrifugation
B1: binds.
